Data taken from PMC3342945.

T1: membrane IL-6R on BAF/gp130/IL6R/TNF cells (Homo sapiens) (UniProt P08887)
T1 sequence: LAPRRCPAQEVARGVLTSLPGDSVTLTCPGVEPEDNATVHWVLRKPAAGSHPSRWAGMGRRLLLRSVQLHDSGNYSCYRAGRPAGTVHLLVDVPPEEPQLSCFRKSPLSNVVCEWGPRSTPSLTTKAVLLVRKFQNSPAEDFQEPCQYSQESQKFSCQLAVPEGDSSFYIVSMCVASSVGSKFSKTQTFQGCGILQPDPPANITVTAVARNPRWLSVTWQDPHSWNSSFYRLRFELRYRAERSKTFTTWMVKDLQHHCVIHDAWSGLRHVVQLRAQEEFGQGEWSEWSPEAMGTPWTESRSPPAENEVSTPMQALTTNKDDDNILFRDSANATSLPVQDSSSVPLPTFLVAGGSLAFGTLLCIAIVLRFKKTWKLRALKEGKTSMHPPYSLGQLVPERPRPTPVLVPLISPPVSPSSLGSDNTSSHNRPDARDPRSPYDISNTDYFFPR


Experiments:
[1] = biological target: T1, membrane IL-6R on BAF/gp130/IL6R/TNF cells (Homo sapiens); experiment: flow cytometry
[2] = biological target: T2, Hyper-IL-6 (IL-6 and sIL-6R fusion, flexible linker) (Homo sapiens, UniProt P08887 113-323+P05231:29-212, internal_change); experiment: filter binding
[3] = biological target: T2, Hyper-IL-6 (IL-6 and sIL-6R fusion, …); experiment: filter binding; remark: listed apart in the source

| Molecule | binding result [2] | other results |
| --- | --- | --- |
| GGGGAGGCUGUGGUGAGGG [AIR-3A Atto647N] |  | Kd [1]: 8.5 nM |
| GGGGAGGCUGUGGUGAGUG (ssRNA) [G18U] | no binding |  |
| GGGGAGGCUGUGGUGAUUG (ssRNA) [G17U/G18U] | no binding |  |
| GGGGAGGCUGUGGUGAUGG (ssRNA) [G17U] | no binding |  |
| GGGGAGGCUGUGGUGAGGG (structured_RNA) [AIR-3A] |  | Kd [3]: 60.4 ± 16 nM |
